# From patent publication US20230212319A1, “NOVEL ANTIGEN BINDING DOMAINS AND SYNTHETIC ANTIGEN RECEPTORS INCORPORATING THE SAME” (University of Southern California, priority 2020, published 2023)
# B1: CD8SP-BCMA-FHVH-93-G4S-hu-mROO5-vL-[hTCRb-S57C]-F-P2A-IgHSP-CD20-VHH-USC1-2HCD26-G4S-AFP-Va-14-3-AI-[hTCRa-T48C]-F-F2A-PAC (protein)
# chain: MALPVTALLLPLALLLHAARPACEVQLLESGGGLIQPGGSLRLSCAASGFTFSSHAMTWVRQAPGKGLEWVSAISGSGDYTHYADSVKGRFTISRDNSKNTVYLQMNSLRAEDSAVYYCAKDEDGGSLLGHRGQGTLVTVSSGTGGGGSGGGGSGGGGSEFDIQMTQSPSSLSASVGDRVTITCKASDHINNWLAWYQQKPGQAPKLLIYGATTLETGVPSRFSGSGSGTDYTLTISSLQPEDFATYYCQQSWNTPWTFGQGTKLEIKRLEDLKNVFPPEVAVFEPSEAEISHTQKATLVCLATGFYPDHVELSWWVNGKEVHSGVCTDPQPLKEQPALNDSRYCLSSRLRVSATFWQNPRNHFRCQVQFYGLSENDEWTQDRAKPVTQIVSAEAWGRADCGFTSESYQQGVLSATILYEILLGKATLYAVLVSALVLMAMVKRKDSRGRAKRSGSGATNFSLLKQAGDVEENPGPTSATMDWIWRILFLVGAATGAHSGPEVQLVESGGGLVQAGGSLRLSCAASGRTFSMGWFRQAPGKEREFVAAITYSGGSPYYADSVKGRFTISRDNAKNTVYLQMNSLKPEDTAVYYCAANPTYGSDWNAENWGQGTQVTVSSGSGGGGSGGGGSGGGGSFEQKEVEQNSGPLSVPEGAIASLNCTYSDRGSQSFFWYRQYSGKSPELIMSIYSNGDKEDGRFTAQLNKASQYVSLLIRDSQPSDSATYLCAVNSQSGVALNFGKGTSLLVTPHIQNPDPAVYQLRDSKSSDKSVCLFTDFDSQTNVSQSKDSDVYITDKCVLDMRSMDFKSNSAVAWSNKSDFACANAFNNSIIPEDTFFPSPESSCDVKLVEKSFETDTNLNFQNLSVIGFRILLLKVAGFNLLMTLRLWSSRAKRSGSGVKQTLNFDLLKLAGDVESNPGPSRGHMTEYKPTVRLATRDDVPRAVRTLAAAFADYPATRHTVDPDRHIERVTELQELFLTRVGLDIGKVWVADDGAAVAVWTTPESVEAGAVFAEIGPRMAELSGSRLAAQQQMEGLLAPHRPKEPAWFLATVGVSPDHQGKGLGSAVVLPGVEAAERAGVPAFLETSAPRNLPFYERLGFTVTADVEVPEGPRTWCMTRKPGA
# B2: CD8SP-CD19-hu-mROO5-1-vL-IgCL-TCRg-6MD-F-P2A-SP-CD19-hu-mROO5-1-vH-hTCR-delta-F-F2A-PAC (protein)
# chain: MALPVTALLLPLALLLHAARPDIQMTQSPSSLSASVGDRVTITCKASDHINNWLAWYQQKPGQAPKLLIYGATTLETGVPSRFSGSGSGTDYTLTISSLQPEDFATYYCQQSWNTPWTFGQGTKLEIKRLEGQPKANPTVTLFPPSSEELQANKATLVCLISDFYPGAVTVAWKADGSPVKAGVETTKPSKQSNNKYAASSYLSLTPEQWKSHRSYSCQVTHEGSTVEKTVAPTECSPIKTDVITMDPKDNCSKDANDTLLLQLTNTSAYYMYLLLLLKSVVYFAIITCCLLRRTAFCCNGEKSRAKRSGSGATNFSLLKQAGDVEENPGPTSMDWIWRILFLVGAATGAHSFEQVQLQQPGAELVKPGASVKMSCKASGYAFSSYWINWMKQKPGQGLEWIGQIYPGDGDTNYNGKFKGRATLTADTSSSTAYMQLSSLTSEDSAVYFCARSITTVVGCAMDYWGQGTSVTVSSTRSQPHTKPSVFVMKNGTNVACLVKEFYPKDIRINLVSSKKITEFDPAIVISPSGKYNAVKLGKYEDSNSVTCSVQHDNKTVHSTDFEVKTDSTDHVKPKETENTKQPSKSCHKPKAIVHTEKVNMMSLTVLGLRMLFAKTVAVNFLLTAKLFFLRAKRSGSGVKQTLNFDLLKLAGDVESNPGPSRGHMTEYKPTVRLATRDDVPRAVRTLAAAFADYPATRHTVDPDRHIERVTELQELFLTRVGLDIGKVWVADDGAAVAVWTTPESVEAGAVFAEIGPRMAELSGSRLAAQQQMEGLLAPHRPKEPAWFLATVGVSPDHQGKGLGSAVVLPGVEAAERAGVPAFLETSAPRNLPFYERLGFTVTADVEVPEGPRTWCMTRKPGA
# B3: SEQ ID NO: 22252: bispecific SAR on CD19 targeted SIR backbone comprising the receptor binding domain of the ligand 4-1BB (protein)
# chain: MALPVTALLLPLALLLHAARPDIQMTQSPSSLSASVGDRVTITCKASDHINNWLAWYQQKPGQAPKLLIYGATTLETGVPSRFSGSGSGTDYTLTISSLQPEDFATYYCQQSWNTPWTFGQGTKLEIKRLEDLKNVFPPEVAVFEPSEAEISHTQKATLVCLATGFYPDHVELSWWVNGKEVHSGVCTDPQPLKEQPALNDSRYCLSSRLRVSATFWQNPRNHFRCQVQFYGLSENDEWTQDRAKPVTQIVSAEAWGRADCGFTSESYQQGVLSATILYEILLGKATLYAVLVSALVLMAMVKRKDSRGRAKRSGSGATNFSLLKQAGDVEENPGPTSATMDWIWRILFLVGAATGAHSGPGLLDLRQGMFAQLVAQNVLLIDGPLSWYSDPGLAGVSLTGGLSYKEDTKELVVAKAGVYYVFFQLELRRVVAGEGSGSVSLALHLQPLRSAAGAAALALTVDLPPASSEARNSAFGFQGRLLHLSAGQRLGVHLHTEARARHAWQLTQGATVLGLFRVTPEIPAGLPSPRSEGSGGGGSGGGGSGGGGSFEQVQLQQPGAELVKPGASVKMSCKASGYAFSSYWINWMKQKPGQGLEWIGQIYPGDGDTNYNGKFKGRATLTADTSSSTAYMQLSSLTSEDSAVYFCARSITTVVGCAMDYWGQGTSVTVSSTRIQNPDPAVYQLRDSKSSDKSVCLFTDFDSQTNVSQSKDSDVYITDKCVLDMRSMDFKSNSAVAWSNKSDFACANAFNNSIIPEDTFFPSPESSCDVKLVEKSFETDTNLNFQNLSVIGFRILLLKVAGFNLLMTLRLWSSRAKRSGSGVKQTLNFDLLKLAGDVESNPGPSRGHMTEYKPTVRLATRDDVPRAVRTLAAAFADYPATRHTVDPDRHIERVTELQELFLTRVGLDIGKVWVADDGAAVAVWTTPESVEAGAVFAEIGPRMAELSGSRLAAQQQMEGLLAPHRPKEPAWFLATVGVSPDHQGKGLGSAVVLPGVEAAERAGVPAFLETSAPRNLPFYERLGFTVTADVEVPEGPRTWCMTRKPGA
# B4: SEQ ID NO: 22253: bispecific SAR on CD19 targeted SIR backbone comprising the receptor binding domain of the ligand APRIL (protein)
# chain: MALPVTALLLPLALLLHAARPDIQMTQSPSSLSASVGDRVTITCKASDHINNWLAWYQQKPGQAPKLLIYGATTLETGVPSRFSGSGSGTDYTLTISSLQPEDFATYYCQQSWNTPWTFGQGTKLEIKRLEDLKNVFPPEVAVFEPSEAEISHTQKATLVCLATGFYPDHVELSWWVNGKEVHSGVCTDPQPLKEQPALNDSRYCLSSRLRVSATFWQNPRNHFRCQVQFYGLSENDEWTQDRAKPVTQIVSAEAWGRADCGFTSESYQQGVLSATILYEILLGKATLYAVLVSALVLMAMVKRKDSRGRAKRSGSGATNFSLLKQAGDVEENPGPTSATMDWIWRILFLVGAATGAHSGPVLHLVPINATSKDDSDVTEVMWQPALRRGRGLQAQGYGVRIQDAGVYLLYSQVLFQDVTFTMGQVVSREGQGRQETLFRCIRSMPSHPDRAYNSCYSAGVFHLHQGDILSVIIPRARAKLNLSPHGTFLGFVKLGSGGGGSGGGGSGGGGSFEQVQLQQPGAELVKPGASVKMSCKASGYAFSSYWINWMKQKPGQGLEWIGQIYPGDGDTNYNGKFKGRATLTADTSSSTAYMQLSSLTSEDSAVYFCARSITTVVGCAMDYWGQGTSVTVSSTRIQNPDPAVYQLRDSKSSDKSVCLFTDFDSQTNVSQSKDSDVYITDKCVLDMRSMDFKSNSAVAWSNKSDFACANAFNNSIIPEDTFFPSPESSCDVKLVEKSFETDTNLNFQNLSVIGFRILLLKVAGFNLLMTLRLWSSRAKRSGSGVKQTLNFDLLKLAGDVESNPGPSRGHMTEYKPTVRLATRDDVPRAVRTLAAAFADYPATRHTVDPDRHIERVTELQELFLTRVGLDIGKVWVADDGAAVAVWTTPESVEAGAVFAEIGPRMAELSGSRLAAQQQMEGLLAPHRPKEPAWFLATVGVSPDHQGKGLGSAVVLPGVEAAERAGVPAFLETSAPRNLPFYERLGFTVTADVEVPEGPRTWCMTRKPGA
# Test system: RAJI cells
# Assay: JNG assay, co-culture with RAJI cells
# Assay type: cell-based
# Conditions: co-culture with RAJI cells
# Description: Cellular supernatant is collected and assayed for the induction of cytokines (e.g., IL2).
# JNG (Jurkat cells expressing EGFP under an NFAT promoter) were infected with lentiviral vectors encoding different single chain and multi-chain SARs by spinfection in the presence of 8 µg/ml of Polybrene® (Sigma, Catalog no. H9268). The Jurkat-NFAT-GFP cells are engineered in such a way that the IL-2 promoter, which carries NFAT binding sites, is cloned upstream of the GFP gene. These cells have been used to study signaling via TCR and CAR. The different SARs were stably expressed in Jurkat NFAT-GFP cells by lentiviral mediated gene transfer, followed by selection with puromycin or blasticidin. No drug selection was used in case the construct lacked an antibiotic resistance gene. The SAR-expressing Jurkat-NFAT-GFP cells were cocultured with the target cells at E:T ratio of approximately 1:2 for approximately 4 hours to 18 hours. When the interaction between SIRs and their target antigen results in activation of the NFAT pathway, GFP expression is induced. […] GFP expression was monitored by FACS analysis. The Jurkat-NFAT-GFP (parental) cells were used as control. The structure of different constructs can be determined based on their names. […] The sequence of the other constructs in the table can be similarly determined from their names and by referring to the different Tables of this disclosure that provide the names and SEQ ID NO of the different modules. Alternatively, the composition and modular architecture of the different SAR constructs can be determined from their sequences by bioinformatics tools, including using nucleic acid and amino acids homology searches. A SAR is considered positive in the assay in case the SAR expressing Jurkat-NFAT-GFP cells show greater % GFP positive cells when cultured with the target cell line as compared to parental Jurkat-NFAT-GFP cells. […] In general, the number +/-, +, 2+, 3+, 4+, 5+ refer to approximately 5%, 10%, 20%, 30%, 40% and 50% GFP positive cells. The % of GFP induction in the above assay is dependent not only the relative strength of the SAR but also, among other factors, on the relative level of expression of the SAR in the JNG cells and the relative level of expression of the target antigen in the target cell line. To control for the difference in gene transduction efficiency of the different SAR constructs, the experiment was conducted with JNG cells transduced with SAR constructs co-expressing a drug resistance gene (e.g., puromycin or PAC) followed by drug selection to generate a stable population of SAR-expressing cells. It is to be noted that the drug resistance gene (e.g., PAC) in the SAR constructs is optional and in vivo studies were conducted with SAR constructs lacking the PAC gene.
row,Molecule,GFP induction / activity
1,B1,robust GFP induction activity
2,B2,robust GFP induction
3,B3,retained the ability to respond
4,B4,retained the ability to respond
